Reference: PMC6990647

Target: hUNG2 N-terminal domain (NTD) (Homo sapiens, UniProt P13051 1-92)
Assay: fluorescence anisotropy

hUNG2 N-terminal domain (NTD), sequence (P13051 1-92): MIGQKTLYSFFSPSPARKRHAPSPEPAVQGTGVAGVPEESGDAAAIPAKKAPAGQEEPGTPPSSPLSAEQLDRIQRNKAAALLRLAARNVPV

Binder	Kd
NS19FAM duplex (dsDNA) DNA 1: GCTCTGTACATGAGCAGTG DNA 2: CACTGCTCATGTACAGAGC	10 µM
GCTCTGTACATGAGCAGTG (ssDNA) [NS19FAM ssDNA]	23 µM
